Laboratory results from patent US20080058263A1 (published 2008).
Where a chain is given by its changes, count along the chain named.

T1: VEGFR-3-Fc (UniProt P35916 25-328)
T1 construct: domain: first three Ig domains; conditioned supernatant of 293T cells; also called VEGFR-3-Fc fusion protein; not shown: Fc fragment of the pIg vector
T1 sequence (looked up): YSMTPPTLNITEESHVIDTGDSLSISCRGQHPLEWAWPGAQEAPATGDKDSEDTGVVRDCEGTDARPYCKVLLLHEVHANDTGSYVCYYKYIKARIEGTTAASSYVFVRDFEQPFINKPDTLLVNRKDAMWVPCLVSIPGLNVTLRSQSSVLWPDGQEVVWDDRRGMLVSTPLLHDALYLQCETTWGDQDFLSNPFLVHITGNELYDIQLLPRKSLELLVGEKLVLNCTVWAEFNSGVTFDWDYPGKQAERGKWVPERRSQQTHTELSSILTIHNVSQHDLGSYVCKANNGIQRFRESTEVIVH

B1: 62-11 (ligand)
chain: GQNHHEVVKFMDVYQRSYCHPREVCIDVGKEFGVATNTFFKPPCVSVYRCGGCCNSEGLQCVPTEESNITMQIMRITVPLSQGPKPVTISFLQHNKCECRPKKD
B2: 73-7 (ligand)
chain: GQNHHEVVKSIDNEWRKTQCMPREVCIDVGKEYPDEIEYIFKPPCVSVYRCGGCCNSEGLQCVPTEESNITMQIMRIKPHQGQHIGEMSFANHTSCRCMSKLD
B3: 61-13 (ligand)
chain: GQNHHEVVKFMDVYQRSYCHPREVCIDVGKEYPDEIEYIFKPSCVPLMRCGGCCNDEGLECVPTEESNITMQIMRITVPLSQGPKPVTISFANHTSCRCMSKLD
B4: 62-13 (ligand)
chain: B1 chain with S56D, Q60E, L92A, Q93N, N95T, K96S, E98R, R100M, P101S, K103L
B5: 63-9 (ligand)
chain: B1 chain with F32Y, G33P, V34D, A35E, T36I, N37E, T38Y, F39I, S56D, Q60E
B6: 13-13 (ligand)
chain: GQNHHEVVKFMDVYQRSYCHPIETLVDIFQEYPDEIEYIFKPPCVSVYRCGGCCNDEGLECVPTEESNITMQIMRITVPLSQGPKPVTISFANHTSCRCMSKLD
B7: 43-13 (ligand)
chain: AHYNTEILKFMDVYQRSYCHPREVCIDVGKEYPDEIEYIFKPPCVSVYRCGGCCNDEGLECVPTEESNITMQIMRITVPLSQGPKPVTISFANHTSCRCMSKLD
B8: 63-1 (ligand)
chain: GQNHHEVVKFMDVYQRSYCHPREVCIDVGKEYPDEIEYIFKPPCVSVYRCGGCCNDEGLECVPTEESNITMQIMRIKPHQGQHIGEMSFLQHNKCECRPKKD
B9: 13-8 (ligand)
chain: GQNHHEVVKFMDVYQRSYCHPIETLVDIFQEYPDEIEYIFKPPCVSVYRCGGCCNSEGLQCMNTSTSYLSKTLFEIKPHQGQHIGEMSFANHTSCRCMSKLD
B10: 64-8 (ligand)
chain: GQNHHEVVKFMDVYQRSYCHPREVCIDVGKEFGVATNTFFKPSCVPLMRCGGCCNSEGLQCMNTSTSYLSKTLFEIKPHQGQHIGEMSFANHTSCRCMSKLD
B11: 43-6 (ligand)
chain: AHYNTEILKFMDVYQRSYCHPREVCIDVGKEYPDEIEYIFKPPCVSVYRCGGCCNDEGLECMNTSTSYLSKTLFEIKPHQGQHIGEMSFANHTSCRCMSKLD
B12: 61-8 (ligand)
chain: B10 chain with F32Y, G33P, V34D, A35E, T36I, N37E, T38Y, F39I
B13: 61-6 (ligand)
chain: B10 chain with F32Y, G33P, V34D, A35E, T36I, N37E, T38Y, F39I, S56D, Q60E
B14: 61-4 (ligand)
chain: GQNHHEVVKFMDVYQRSYCHPREVCIDVGKEYPDEIEYIFKPSCVPLMRCGGCCNSEGLQCMNTSTSYLSKTLFEIKPHQGQHIGEMSFLQHNKCECRPKKD
B15: 62-6 (ligand)
chain: B10 chain with S43P, P46S, L47V, M48Y, S56D, Q60E
B16: 62-8 (ligand)
chain: B10 chain with S43P, P46S, L47V, M48Y
B17: 43-8 (ligand)
chain: B11 chain with D56S, E60Q
B18: 63-6 (ligand)
chain: B11 chain with A1G, H2Q, Y3N, N4H, T5H, I7V, L8V
B19: 62-14 (ligand)
chain: GQNHHEVVKFMDVYQRSYCHPREVCIDVGKEFGVATNTFFKPPCVSVYRCGGCCNDEGLECMNTSTSYLSKTLFEITVPLSQGPKPVTISFANHTSCRCMSKLD
B20: 42-16 (ligand)
chain: B19 chain with G1A, Q2H, N3Y, H4N, H5T, V7I, V8L, D56S, E60Q
B21: 62-16 (ligand)
chain: B19 chain with D56S, E60Q
B22: 63-14 (ligand)
chain: B19 chain with F32Y, G33P, V34D, A35E, T36I, N37E, T38Y, F39I
B23: 62-10 (ligand)
chain: B19 chain with A92L, N93Q, T95N, S96K, R98E, M100R, S101P, L103K
B24: 63-16 (ligand)
chain: B19 chain with F32Y, G33P, V34D, A35E, T36I, N37E, T38Y, F39I, D56S, E60Q
B25: 64-14 (ligand)
chain: B19 chain with P43S, S46P, V47L, Y48M
B26: 64-10 (ligand)
chain: GQNHHEVVKFMDVYQRSYCHPREVCIDVGKEFGVATNTFFKPSCVPLMRCGGCCNDEGLECMNTSTSYLSKTLFEITVPLSQGPKPVTISFLQHNKCECRPKKD
B27: 62-12 (ligand)
chain: B26 chain with S43P, P46S, L47V, M48Y, D56S, E60Q
B28: 44-14 (ligand)
chain: AHYNTEILKFMDVYQRSYCHPREVCIDVGKEFGVATNTFFKPSCVPLMRCGGCCNDEGLECMNTSTSYLSKTLFEITVPLSQGPKPVTISFANHTSCRCMSKLD
B29: 64-16 (ligand)
chain: B19 chain with P43S, S46P, V47L, Y48M, D56S, E60Q
B30: 42-14 (ligand)
chain: B28 chain with S43P, P46S, L47V, M48Y

biological target: T2, VEGFR-2-Fc (UniProt P35968 20-322); experiment: receptor-Fc IP
T2 construct: domain: first 3 Ig domains; conditioned supernatant of 293T cells; also called VEGFR-2-Fc fusion protein; not shown: Fc fragment of the pIg vector
Summary of the method: (§1)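 Binding of ligand from sample supernatant measured by pentahistidine-antibody immunoprecipitation. IP mix: PBS with 1.5% BSA, 0.06% Tween 20, 3 μg/ml heparin and 400 ng/ml fusion protein, added 1:2 to sample supernatant.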

T2 sequence (P35968 20-322): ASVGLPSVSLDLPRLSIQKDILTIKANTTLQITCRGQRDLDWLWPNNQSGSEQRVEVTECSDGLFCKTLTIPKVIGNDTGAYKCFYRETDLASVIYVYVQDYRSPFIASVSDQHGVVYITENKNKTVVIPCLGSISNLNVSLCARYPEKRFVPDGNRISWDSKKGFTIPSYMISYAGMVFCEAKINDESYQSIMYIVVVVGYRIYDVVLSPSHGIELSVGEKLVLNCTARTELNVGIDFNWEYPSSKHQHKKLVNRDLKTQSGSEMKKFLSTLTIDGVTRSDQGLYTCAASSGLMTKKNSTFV

Binder | binding result
B1 | binds
B2 | binds
B3 | no binding
B4 | binds
B5 | no binding
B6 | no binding
B7 | no binding
B8 | binds
B9 | no binding
B10 | no binding
B11 | no binding
B12 | no binding
B13 | no binding
B14 | no binding
B15 | no binding
B16 | binds
B17 | no binding
B18 | binds
B19 | no binding
B20 | no binding
B21 | no binding
B22 | no binding
B23 | binds
B24 | no binding
B25 | no binding
B26 | no binding
B27 | no binding
B28 | no binding
B29 | no binding
B30 | no binding

biological target: T3, VEGFR-1-Fc (UniProt P17948 27-338); experiment: receptor-Fc IP
T3 construct: domain: first three Ig domains; expressed in Drosophila S2 cells, purified on Protein A sepharose; also called VEGFR-1-Fc fusion protein; not shown: Fc fragment from the Signal-pIgPlus vector
Summary of the method: as §1

T3 sequence (P17948 27-338): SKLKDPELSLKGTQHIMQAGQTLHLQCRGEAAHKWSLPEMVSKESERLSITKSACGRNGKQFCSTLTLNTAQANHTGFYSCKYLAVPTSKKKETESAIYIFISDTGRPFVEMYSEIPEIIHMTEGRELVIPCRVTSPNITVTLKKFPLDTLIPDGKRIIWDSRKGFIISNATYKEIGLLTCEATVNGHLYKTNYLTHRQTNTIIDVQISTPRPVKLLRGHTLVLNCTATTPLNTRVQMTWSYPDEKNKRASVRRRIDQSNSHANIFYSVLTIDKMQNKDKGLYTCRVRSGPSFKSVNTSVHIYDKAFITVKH

Binder | binding result
B1 | no binding
B2 | no binding
B3 | no binding
B4 | no binding
B5 | no binding
B6 | binds
B7 | no binding
B8 | binds
B9 | no binding
B10 | no binding
B11 | no binding
B12 | no binding
B13 | no binding
B14 | no binding
B15 | no binding
B16 | no binding
B17 | no binding
B18 | no binding
B19 | no binding
B20 | no binding
B21 | no binding
B22 | no binding
B23 | no binding
B24 | no binding
B25 | no binding
B26 | no binding
B27 | no binding
B28 | no binding
B29 | no binding
B30 | no binding

biological target: T1, VEGFR-3-Fc; experiment: receptor-Fc IP
Summary of the method: as §1

Binder | binding result
B1 | binds
B2 | no binding
B3 | no binding
B4 | no binding
B5 | no binding
B6 | no binding
B7 | no binding
B8 | no binding
B9 | no binding
B10 | no binding
B11 | no binding
B12 | no binding
B13 | no binding
B14 | no binding
B15 | no binding
B16 | no binding
B17 | no binding
B18 | no binding
B19 | no binding
B20 | no binding
B21 | no binding
B22 | no binding
B23 | no binding
B24 | no binding
B25 | no binding
B26 | no binding
B27 | no binding
B28 | no binding
B29 | no binding
B30 | no binding
